This is an account of results in article PMC5216073.

Test [1] addresses CtYpt7 wild type (Chaetomium thermophilum Ypt7) (Chaetomium thermophilum).
Test [2] concerns the target CtYpt7-F33A (Chaetomium thermophilum).
For test [3], the target named is CtYpt7-K38A (Chaetomium thermophilum).

Consider “CtMC1core complex (CtMon1 195-355 with CtCcz1 1-249), both expression tags retained, as used in the GEF assay”, for which the kcat/KM of MC1-stimulated exchange of MANT-GDP for GTP on Ypt7 (fluorescence GEF assay, 0-2.0 μM CtMC1core, 25 °C) in test [1] came out at 23000 M⁻¹ s⁻¹. Also, the results for the kcat/KM of MC1-stimulated nucleotide exchange (fluorescence GEF assay, rates against CtMC1core concentration) in test [2] and in test [3] were 35000 M⁻¹ s⁻¹ and 2600 M⁻¹ s⁻¹, respectively.
